Values quoted from earlier work in paper PMC4718210.
Read-outs that look alike come from different tables or passages of the source. Values belong to the substance of their own block, whether it stands above or below them.

Legend:
[1] = biological target: RXFP4 receptor (Homo sapiens) (UniProt Q8TDU9)
[2] = biological target: RXFP4 receptor (Homo sapiens) (UniProt Q8TDU9); remark: listed apart in the source
[3] = biological target: RXFP1 receptor (Homo sapiens) (UniProt Q9HBX9)
[4] = biological target: RXFP2 receptor (Homo sapiens) (UniProt Q8WXD0)
Sequence of UniProt Q8WXD0 (Q8WXD0 whole entry): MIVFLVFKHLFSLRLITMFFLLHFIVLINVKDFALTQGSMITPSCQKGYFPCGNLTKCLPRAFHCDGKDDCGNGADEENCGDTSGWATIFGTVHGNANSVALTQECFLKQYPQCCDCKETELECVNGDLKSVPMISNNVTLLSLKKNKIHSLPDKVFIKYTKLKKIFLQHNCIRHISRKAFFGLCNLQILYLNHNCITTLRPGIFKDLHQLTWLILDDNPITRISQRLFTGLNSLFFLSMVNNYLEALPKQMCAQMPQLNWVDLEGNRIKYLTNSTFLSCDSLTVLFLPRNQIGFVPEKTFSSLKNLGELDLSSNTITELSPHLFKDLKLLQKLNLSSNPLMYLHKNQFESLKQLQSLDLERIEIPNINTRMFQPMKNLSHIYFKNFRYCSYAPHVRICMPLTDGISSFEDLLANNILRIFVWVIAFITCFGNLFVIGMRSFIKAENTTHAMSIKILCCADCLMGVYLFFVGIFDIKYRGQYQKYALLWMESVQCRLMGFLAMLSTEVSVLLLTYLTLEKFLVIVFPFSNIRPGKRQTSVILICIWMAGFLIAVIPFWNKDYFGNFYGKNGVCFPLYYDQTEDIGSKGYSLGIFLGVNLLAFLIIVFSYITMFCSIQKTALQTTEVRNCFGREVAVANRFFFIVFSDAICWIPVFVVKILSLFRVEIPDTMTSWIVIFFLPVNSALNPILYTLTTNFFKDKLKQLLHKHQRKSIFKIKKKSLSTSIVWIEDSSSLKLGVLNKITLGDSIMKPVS

[5] = biological target: TRH1 receptor (Homo sapiens) (UniProt P34981)
Sequence of UniProt P34981 (P34981 whole entry): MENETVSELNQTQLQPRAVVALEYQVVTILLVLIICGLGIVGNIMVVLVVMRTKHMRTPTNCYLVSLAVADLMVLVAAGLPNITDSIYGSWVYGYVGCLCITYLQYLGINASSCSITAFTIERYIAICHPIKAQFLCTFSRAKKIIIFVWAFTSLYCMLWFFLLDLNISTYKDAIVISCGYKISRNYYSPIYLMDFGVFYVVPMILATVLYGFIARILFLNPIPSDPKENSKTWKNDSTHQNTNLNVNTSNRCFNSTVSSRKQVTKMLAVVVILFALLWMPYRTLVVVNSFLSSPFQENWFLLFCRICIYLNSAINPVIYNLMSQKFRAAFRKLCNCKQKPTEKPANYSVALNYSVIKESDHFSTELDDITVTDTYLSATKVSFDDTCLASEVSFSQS

Sequence of UniProt Q8TDU9 (Q8TDU9 whole entry): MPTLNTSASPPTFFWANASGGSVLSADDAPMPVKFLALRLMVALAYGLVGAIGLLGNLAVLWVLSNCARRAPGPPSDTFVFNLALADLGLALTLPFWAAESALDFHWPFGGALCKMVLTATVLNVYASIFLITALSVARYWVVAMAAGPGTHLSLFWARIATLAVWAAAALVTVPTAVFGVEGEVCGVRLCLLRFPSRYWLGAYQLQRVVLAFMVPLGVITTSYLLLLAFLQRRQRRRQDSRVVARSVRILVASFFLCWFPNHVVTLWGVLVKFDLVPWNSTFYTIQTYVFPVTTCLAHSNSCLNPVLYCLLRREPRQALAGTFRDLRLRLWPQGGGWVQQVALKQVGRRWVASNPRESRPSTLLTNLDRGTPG
Sequence of UniProt Q9HBX9 (Q9HBX9 whole entry): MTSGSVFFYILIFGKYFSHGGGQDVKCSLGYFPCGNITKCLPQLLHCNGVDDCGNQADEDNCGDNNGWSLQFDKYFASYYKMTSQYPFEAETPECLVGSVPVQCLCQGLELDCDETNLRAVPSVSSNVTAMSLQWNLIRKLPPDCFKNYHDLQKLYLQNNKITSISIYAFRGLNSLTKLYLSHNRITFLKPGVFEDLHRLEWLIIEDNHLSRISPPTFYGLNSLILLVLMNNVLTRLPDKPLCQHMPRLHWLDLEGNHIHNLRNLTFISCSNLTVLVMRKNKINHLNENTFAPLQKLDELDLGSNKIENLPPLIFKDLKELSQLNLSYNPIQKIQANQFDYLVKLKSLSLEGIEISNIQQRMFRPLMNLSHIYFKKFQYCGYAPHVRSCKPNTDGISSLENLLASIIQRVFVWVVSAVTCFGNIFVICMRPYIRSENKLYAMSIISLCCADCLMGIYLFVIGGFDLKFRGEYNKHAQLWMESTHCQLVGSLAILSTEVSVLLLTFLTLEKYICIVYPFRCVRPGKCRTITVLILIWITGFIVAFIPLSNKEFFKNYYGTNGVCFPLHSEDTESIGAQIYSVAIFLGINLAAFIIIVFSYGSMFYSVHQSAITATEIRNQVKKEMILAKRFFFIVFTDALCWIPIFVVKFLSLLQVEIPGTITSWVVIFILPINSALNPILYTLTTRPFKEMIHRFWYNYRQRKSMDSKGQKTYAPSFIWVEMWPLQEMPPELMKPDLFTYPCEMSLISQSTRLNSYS

Substance: INSL5 (from UniProt Q9WUG6)
Kd [1]: 5 nM

Substance: INSL3 (from UniProt P51460)
Kd [4]: 1 nM

Substance: TRH (from UniProt P20396)
Kd [5]: 13 nM

Next, values leading:

Kd [2]: 5.01 nM
Substance: INSL5 (from UniProt Q9Y5Q6)

Kd [3]: 0.5 nM
Substance: relaxin (from UniProt P04090)
